Assay results reported in FireProtDB (doi:10.1110/ps.03176803).

Conditions: Kitasatospora aureofaciens; pH 7; Thermal; DSC; PIPES 0.03 M; reversible: yes (90-95%); whole UniProt chain shown

B1: Guanyl-specific ribonuclease Sa wild type, P05798 (protein)
chain: DVSGTVCLSALPPEATDTLNLIASDGPFPYSQDGVVFQNRESVLPTQSYGYYHEYTVITPGARTRGTRRIITGEATQEDYYTGDHYATFSLIDQTC
Tm: 49 °C | unfolding enthalpy (calorimetric): 92 kcal/mol | unfolding enthalpy (van 't Hoff): 103 kcal/mol
